These results are taken from patent US20220002403A1.

In the test the target is human ILT4 haplotype 5 expressed on mouse 3A9 T cells (human) (UniProt Q8N423). Nature of the test: cell-based or functional assay.
human ILT4 haplotype 5 expressed on mouse 3A9 T cells (human), sequence (Q8N423 other isoform, or with tags, fused parts or gaps): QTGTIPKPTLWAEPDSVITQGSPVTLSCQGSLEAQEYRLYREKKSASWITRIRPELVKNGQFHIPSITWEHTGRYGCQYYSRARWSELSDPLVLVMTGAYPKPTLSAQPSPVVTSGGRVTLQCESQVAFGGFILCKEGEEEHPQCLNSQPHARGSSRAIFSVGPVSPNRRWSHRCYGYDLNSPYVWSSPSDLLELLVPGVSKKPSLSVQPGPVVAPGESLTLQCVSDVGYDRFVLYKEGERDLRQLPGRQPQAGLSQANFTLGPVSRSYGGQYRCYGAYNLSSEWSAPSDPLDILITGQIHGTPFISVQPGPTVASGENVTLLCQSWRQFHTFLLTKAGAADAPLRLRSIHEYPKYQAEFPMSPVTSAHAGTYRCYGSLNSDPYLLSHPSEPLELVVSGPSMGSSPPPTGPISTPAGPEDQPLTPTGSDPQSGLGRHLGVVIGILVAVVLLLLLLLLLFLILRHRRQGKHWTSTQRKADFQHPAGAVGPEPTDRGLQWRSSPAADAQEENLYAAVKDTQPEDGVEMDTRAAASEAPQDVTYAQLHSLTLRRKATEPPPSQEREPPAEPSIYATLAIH

B1: 1E1(G4) (antibody, human IgG4 S228P, lambda, V domains shown)
VH: EVQLQQWGAGLLKPSETLSLTCAVYGGSFSGYYWSWIRQPPGKGLEWIGEINHAGSTNYNPSLKSRVTISVDTSKNQFSLKLSSVTAADTAVYYCARLPTRWVTTRYFDLWGRGTLVTVSS
VL: ESVLTQPPSVSGAPGQRVTISCTGSSSNIGAGYDVHWYQQLPGTAPKLLIYGDSNRPSGVPDRFSVSKSGASASLAITGLQAEDEADYYCQSFDNSLSAYVFGGGTQLTVLG
Regarding B1, the EC50 (IL-2 Repression Assay: rescue of IL-2 release from anti-CD3 stimulated ILT4 3A9 T cell transfectants, ELISA) was determined as 0.43 µg/mL.
